Experimental data reported in patent publication US20210087281A1 (AGOMAB THERAPEUTICS, published 2021).

Legend:
human MET ECD [1] = target: T1, human MET ECD (human, UniProt P08581 25-932); test: ELISA, MET ECD in solid phase, mAb 0-20 nM
T1 construct: range 1-932; recombinant ECD made by the applicants; the stated range begins at residue 1, so it includes the signal peptide of the entry; also called hMET; hMET ECD
How it was run: (§1)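 Chimeric llama-human IgG1 antibodies were expressed by transient transfection of mammalian cells and purified by protein A affinity chromatography. Their binding was then measured by ELISA against immobilized MET ECD, with antibody titrated in solution.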

mouse MET ECD = target: T2, mouse MET ECD (mouse, UniProt P16056 25-931); test: ELISA, MET ECD in solid phase, mAb 0-20 nM
T2 construct: range 1-931; recombinant ECD made by the applicants; the stated range begins at residue 1; also called mMET; mMET ECD
How it was run: as §1

[2] = target: T3, native human MET on living cells (human, UniProt P08581 25-1390); test: cell-based or functional assay
T3 sequence (P08581 25-1390): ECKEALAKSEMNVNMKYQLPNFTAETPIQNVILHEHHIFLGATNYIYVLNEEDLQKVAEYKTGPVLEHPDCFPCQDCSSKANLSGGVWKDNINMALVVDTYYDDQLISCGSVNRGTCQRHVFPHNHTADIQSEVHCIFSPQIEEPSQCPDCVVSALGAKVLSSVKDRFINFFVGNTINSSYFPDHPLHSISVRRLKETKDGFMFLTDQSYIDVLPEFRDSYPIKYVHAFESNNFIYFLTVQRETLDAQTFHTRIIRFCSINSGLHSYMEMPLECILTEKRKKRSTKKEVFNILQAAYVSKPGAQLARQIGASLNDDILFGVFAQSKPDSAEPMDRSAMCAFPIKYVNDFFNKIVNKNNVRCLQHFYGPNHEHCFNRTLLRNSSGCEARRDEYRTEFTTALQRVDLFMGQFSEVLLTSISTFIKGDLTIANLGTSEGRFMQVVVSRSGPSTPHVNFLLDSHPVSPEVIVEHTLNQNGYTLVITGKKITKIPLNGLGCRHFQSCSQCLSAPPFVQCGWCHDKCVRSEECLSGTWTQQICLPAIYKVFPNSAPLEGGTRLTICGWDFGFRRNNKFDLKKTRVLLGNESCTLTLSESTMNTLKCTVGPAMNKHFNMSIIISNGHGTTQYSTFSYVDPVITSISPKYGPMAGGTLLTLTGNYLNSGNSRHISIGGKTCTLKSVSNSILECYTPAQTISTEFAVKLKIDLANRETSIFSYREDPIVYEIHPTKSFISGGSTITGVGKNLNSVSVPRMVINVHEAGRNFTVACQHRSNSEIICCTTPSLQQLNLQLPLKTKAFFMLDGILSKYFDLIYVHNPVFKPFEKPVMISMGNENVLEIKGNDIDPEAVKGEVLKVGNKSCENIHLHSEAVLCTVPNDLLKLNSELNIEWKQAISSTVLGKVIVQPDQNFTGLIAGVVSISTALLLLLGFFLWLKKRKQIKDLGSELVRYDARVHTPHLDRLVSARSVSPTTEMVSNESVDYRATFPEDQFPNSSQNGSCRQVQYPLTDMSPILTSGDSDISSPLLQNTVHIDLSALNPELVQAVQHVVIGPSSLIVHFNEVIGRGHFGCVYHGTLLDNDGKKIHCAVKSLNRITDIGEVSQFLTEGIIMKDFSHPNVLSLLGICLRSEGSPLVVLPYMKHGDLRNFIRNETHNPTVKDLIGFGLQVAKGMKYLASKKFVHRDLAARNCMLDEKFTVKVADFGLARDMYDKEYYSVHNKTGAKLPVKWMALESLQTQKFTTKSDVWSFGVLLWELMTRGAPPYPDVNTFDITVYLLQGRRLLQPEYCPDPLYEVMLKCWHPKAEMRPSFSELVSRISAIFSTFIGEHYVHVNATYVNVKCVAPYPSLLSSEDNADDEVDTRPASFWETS

[3] = target: T4, native mouse MET on living cells (mouse, UniProt P16056 25-1379); test: cell-based or functional assay
[4] = target: T4, native mouse MET on living cells; test: flow cytometry, MLP29 cells
How it was run: (§2)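 Chimeric anti-MET antibodies were incubated with living cells expressing native MET, human on A549 and mouse on MLP29. Binding was detected by flow cytometry with phycoerythrin-conjugated anti-human IgG1. Commercial anti-MET antibodies with matching PE secondaries served as positive controls.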

[5] = target: T5, mouse MET-Fc (R&D Systems) (mouse, UniProt P16056 25-929, limits assumed); test: competition ELISA, mMET-Fc in solid phase, competitor 0.3 nM biotinylated mHGF
T5 construct: bought chimeric protein; also called mMET; not shown: Fc part
How it was run: (§3)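 N-terminally biotinylated HGF (NHS-LC-biotin); mAbs titrated 0-120 nM against coated MET-Fc; read-out IC₅₀ (50% competition) and IMAX (max % competition at saturation).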

human MET ECD [6] = target: T1, human MET ECD; test: ELISA, MET ECD in solid phase, mAb 0-50 nM
Method: Using human MET as a template, we mutagenized each of these residues in different permutations, generating a series of MET mutants that are fully human except for specific residues, which are llama. Next, we tested the affinity of selected SEMA-binding mAbs (71D6, 71C3, 71D4, 71A3, 71G2) and PSI-binding mAbs (76H10 and 71G3) for these MET mutants by ELISA. To this end, the various MET proteins were immobilized in solid phase (100 ng/well in a 96-well plate) and then exposed to increasing concentrations of antibodies (0-50 nM) solution. […] Wild-type human MET was used as positive control.
TABLE 18 The epitopes of MET responsible for agonistic antibody binding represent residues conserved among H. sapiens, M. musculus, R. norvegicus, M. fascicularis but not among the same species and L. glama. The relevance of residues conserved among human, mouse, rat, cynomolgus monkey but not llama MET for binding to agonistic mAbs was tested by ELISA. Wild-type (WT) or mutant (MT) human MET ECD was immobilized in solid phase and exposed to increasing concentrations of mAbs in solution. […] All binding values were normalized to the WT protein and are expressed as % binding (EMAX) compared to WT MET.

[7] = target: T3, native human MET on living cells; test: cell-based or functional assay; remark: listed apart in the source
[8] = target: T4, native mouse MET on living cells; test: cell-based or functional assay; remark: listed apart in the source
[9] = target: human MET ECD mutant H (mutations 2, 4) (human) (UniProt P08581); test: ELISA, MET ECD in solid phase, mAb 0-50 nM
[10] = target: human MET ECD mutant A (mutations 1, 2, 3) (human) (UniProt P08581); test: ELISA, MET ECD in solid phase, mAb 0-50 nM
[11] = target: human MET ECD mutant E (mutations 2, 3, 4) (human) (UniProt P08581); test: ELISA, MET ECD in solid phase, mAb 0-50 nM
[12] = target: human MET ECD mutant D (mutations 1, 2) (human) (UniProt P08581); test: ELISA, MET ECD in solid phase, mAb 0-50 nM
[13] = target: T6, human MET-Fc (R&D Systems) (human, UniProt P08581 25-932); test: competition ELISA, hMET-Fc in solid phase, competitor 0.3 nM biotinylated hHGF
T6 construct: extracellular domain; bought chimeric protein; also called hMET; not shown: Fc portion of human IgG1
T6 sequence (P08581 25-932): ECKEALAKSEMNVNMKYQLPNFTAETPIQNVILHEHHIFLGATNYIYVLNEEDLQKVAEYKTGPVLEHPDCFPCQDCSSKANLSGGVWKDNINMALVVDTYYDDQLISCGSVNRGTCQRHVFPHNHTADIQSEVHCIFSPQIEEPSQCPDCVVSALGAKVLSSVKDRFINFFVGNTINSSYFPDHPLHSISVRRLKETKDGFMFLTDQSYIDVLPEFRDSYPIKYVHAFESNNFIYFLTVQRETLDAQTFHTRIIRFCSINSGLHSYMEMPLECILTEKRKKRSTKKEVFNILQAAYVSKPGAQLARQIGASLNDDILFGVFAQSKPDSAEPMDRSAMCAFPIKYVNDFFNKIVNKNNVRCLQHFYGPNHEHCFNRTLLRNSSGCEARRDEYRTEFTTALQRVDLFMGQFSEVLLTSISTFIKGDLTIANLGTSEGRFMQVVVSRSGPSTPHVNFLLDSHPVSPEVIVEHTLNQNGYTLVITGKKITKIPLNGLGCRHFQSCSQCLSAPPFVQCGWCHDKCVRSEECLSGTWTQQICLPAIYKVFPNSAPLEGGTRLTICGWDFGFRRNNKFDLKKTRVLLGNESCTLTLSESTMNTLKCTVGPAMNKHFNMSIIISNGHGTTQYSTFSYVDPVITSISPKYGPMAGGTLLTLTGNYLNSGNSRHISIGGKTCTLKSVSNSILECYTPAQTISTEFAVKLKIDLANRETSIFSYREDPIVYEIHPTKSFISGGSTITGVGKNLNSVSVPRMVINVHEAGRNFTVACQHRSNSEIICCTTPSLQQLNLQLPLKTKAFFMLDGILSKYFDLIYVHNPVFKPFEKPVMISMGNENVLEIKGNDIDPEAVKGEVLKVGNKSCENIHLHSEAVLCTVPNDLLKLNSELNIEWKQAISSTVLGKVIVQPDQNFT
How it was run: as §3

[14] = target: T3, native human MET on living cells; test: cell-based or functional assay; remark: listed apart in the source
[15] = target: T4, native mouse MET on living cells; test: cell-based or functional assay; remark: listed apart in the source
[16] = target: T3, native human MET on living cells; test: flow cytometry, A549 cells
How it was run: as §2

[17] = target: T3, native human MET on living cells; test: cell-based or functional assay; remark: listed apart in the source
[18] = target: T4, native mouse MET on living cells; test: cell-based or functional assay; remark: listed apart in the source

T1 sequence (P08581 25-932 limits assumed, form in doubt): as the sequence (P08581 25-932) above

B1: 71D6 chimeric llama-human IgG1 mAb (antibody, V domains shown)
VH: ELQLVESGGGLVQPGGSLRLSCAASGFTFSSYGMSWVRQAPGKGLEWVSAINSYGGSTSYADSVKGRFTISRDNAKNTLYLQMNSLKPEDTAVYYCAKEVRADLSRYNDYESYDYWGQGTQVTVSS
VL: QPVLNQPSALSVTLGQTAKITCQGGSLGARYAHWYQQKPGQAPVLVIYDDDSRPSGIPERFSGSSSGGTATLTISGAQAEDEGDYYCQSADSSGSVFGGGTHLTVL
notes: llama VH on human IgG1 CH1-CH2-CH3, llama VL on human lambda CL
EC50 (human MET ECD [1]): 0.026 nM
EMAX (OD450) (human MET ECD [1]): 2.08 AU
EC50 (mouse MET ECD): 0.049 nM
EMAX (OD450) (mouse MET ECD): 2.01 AU
scatter score 0-4, HPAF-II, 0.001 nM [2]: 0 score
scatter score 0-4, HPAF-II, 0.004 nM [2]: 1 score
scatter score 0-4, HPAF-II, 0.012 nM [2]: 2 score
scatter score 0-4, HPAF-II, 0.037 nM [2]: 3 score
scatter score 0-4, HPAF-II, 0.111 nM [2]: 4 score
scatter score 0-4, HPAF-II, 0.333 nM [2]: 4 score
scatter score 0-4, HPAF-II, 1.000 nM [2]: 4 score
scatter score 0-4, HPAF-II, 3.000 nM [2]: 4 score
scatter score 0-4, HPAF-II, 9.000 nM [2]: 4 score
scatter score 0-4, MLP29, 0.001 nM [3]: 0 score
scatter score 0-4, MLP29, 0.004 nM [3]: 1 score
scatter score 0-4, MLP29, 0.012 nM [3]: 2 score
scatter score 0-4, MLP29, 0.037 nM [3]: 3 score
scatter score 0-4, MLP29, 0.111 nM [3]: 4 score
scatter score 0-4, MLP29, 0.333 nM [3]: 4 score
scatter score 0-4, MLP29, 1.000 nM [3]: 4 score
scatter score 0-4, MLP29, 3.000 nM [3]: 4 score
scatter score 0-4, MLP29, 9.000 nM [3]: 4 score
EC50 [4]: 0.383 nM
EMAX [4]: 121 % relative to control
IC50 [5]: 0.34 nM
IMAX [5]: 90.5%
% binding (EMAX) compared to WT MET (human MET ECD [6]): 100 % WT MET ECD
phospho-MET ELISA EC50, A549 cells [7]: 0.32 nM
phospho-MET ELISA EMAX (% HGF activity), A549 cells [7]: 102%
phospho-MET ELISA EC50, MLP29 cells [8]: 0.21 nM
phospho-MET ELISA EMAX (% HGF activity), MLP29 cells [8]: 115%
% binding (EMAX) compared to WT MET [9]: 38.6 % WT MET ECD
% binding (EMAX) compared to WT MET [10]: 103 % WT MET ECD
% binding (EMAX) compared to WT MET [11]: 43.6 % WT MET ECD
% binding (EMAX) compared to WT MET [12]: 128 % WT MET ECD
IC50 [13]: 0.29 nM
IMAX [13]: 98.3%
branches per spheroid, LOC cells, 0.5 nM [14]: 29 branches
branches per spheroid, LOC cells, 2.5 nM [14]: 29 branches
branches per spheroid, LOC cells, 12.5 nM [14]: 32.7 branches
branches per spheroid, MLP29 cells, 0.5 nM [15]: 32.7 branches
branches per spheroid, MLP29 cells, 2.5 nM [15]: 39 branches
branches per spheroid, MLP29 cells, 12.5 nM [15]: 41.3 branches
EC50 [16]: 0.259 nM
EMAX [16]: 113 % relative to control
protection from staurosporine, viability EC50, MCF10A cells [17]: 1.48 nM
protection from staurosporine, viability EMAX, MCF10A cells [17]: 66.8%
protection from staurosporine, viability EC50, MLP29 cells [18]: 0.95 nM
protection from staurosporine, viability EMAX, MLP29 cells [18]: 68.3%

B2: 71C3 chimeric llama-human IgG1 mAb (antibody, V domains shown)
VH: QLQLVESGGGLVQPGGSLRLSCAASGFTFSSHAMSWVRQAPGKGLEWVSAINSGGGSTSYADSVKGRFTISRDNAKNTLYLQMNSLKPEDTAVYYCAKELRFDLARYTDYEAWDYWGQGTQVTVSS
VL: SYELTQPSALSVTLGQTAKITCQGGSLGSSYAHWYQQKPGQAPVLVIYDDDSRPSGIPERFSGSSSGGTATLTISGAQAEDEGDYYCQSADSSGNAAVFGGGTHLTVL
notes: as for B1
EC50 (human MET ECD [1]): 0.203 nM
EMAX (OD450) (human MET ECD [1]): 2.46 AU
EC50 (mouse MET ECD): 0.293 nM
EMAX (OD450) (mouse MET ECD): 2.24 AU
scatter score 0-4, HPAF-II, 0.001 nM [2]: 0 score
scatter score 0-4, HPAF-II, 0.004 nM [2]: 0 score
scatter score 0-4, HPAF-II, 0.012 nM [2]: 0 score
scatter score 0-4, HPAF-II, 0.037 nM [2]: 0 score
scatter score 0-4, HPAF-II, 0.111 nM [2]: 1 score
scatter score 0-4, HPAF-II, 0.333 nM [2]: 2 score
scatter score 0-4, HPAF-II, 1.000 nM [2]: 3 score
scatter score 0-4, HPAF-II, 3.000 nM [2]: 4 score
scatter score 0-4, HPAF-II, 9.000 nM [2]: 4 score
scatter score 0-4, MLP29, 0.001 nM [3]: 0 score
scatter score 0-4, MLP29, 0.004 nM [3]: 0 score
scatter score 0-4, MLP29, 0.012 nM [3]: 0 score
scatter score 0-4, MLP29, 0.037 nM [3]: 0 score
scatter score 0-4, MLP29, 0.111 nM [3]: 1 score
scatter score 0-4, MLP29, 0.333 nM [3]: 2 score
scatter score 0-4, MLP29, 1.000 nM [3]: 3 score
scatter score 0-4, MLP29, 3.000 nM [3]: 4 score
scatter score 0-4, MLP29, 9.000 nM [3]: 4 score
EC50 [4]: 0.585 nM
EMAX [4]: 115 % relative to control
IC50 [5]: 1.56 nM
IMAX [5]: 89.2%
% binding (EMAX) compared to WT MET (human MET ECD [6]): 100 % WT MET ECD
phospho-MET ELISA EC50, A549 cells [7]: 0.35 nM
phospho-MET ELISA EMAX (% HGF activity), A549 cells [7]: 86.2%
phospho-MET ELISA EC50, MLP29 cells [8]: 0.33 nM
phospho-MET ELISA EMAX (% HGF activity), MLP29 cells [8]: 98.8%
% binding (EMAX) compared to WT MET [9]: 61.6 % WT MET ECD
% binding (EMAX) compared to WT MET [10]: 99.8 % WT MET ECD
% binding (EMAX) compared to WT MET [11]: 59.6 % WT MET ECD
% binding (EMAX) compared to WT MET [12]: 102 % WT MET ECD
IC50 [13]: 1.42 nM
IMAX [13]: 93.6%
branches per spheroid, LOC cells, 0.5 nM [14]: 8.7 branches
branches per spheroid, LOC cells, 2.5 nM [14]: 12.7 branches
branches per spheroid, LOC cells, 12.5 nM [14]: 15.7 branches
branches per spheroid, MLP29 cells, 0.5 nM [15]: 11.7 branches
branches per spheroid, MLP29 cells, 2.5 nM [15]: 15.7 branches
branches per spheroid, MLP29 cells, 12.5 nM [15]: 24.7 branches
EC50 [16]: 0.572 nM
EMAX [16]: 106 % relative to control
protection from staurosporine, viability EC50, MCF10A cells [17]: 31.9 nM
protection from staurosporine, viability EMAX, MCF10A cells [17]: 50.2%
protection from staurosporine, viability EC50, MLP29 cells [18]: 31 nM
protection from staurosporine, viability EMAX, MLP29 cells [18]: 51.3%
